Tests used:
[1] = biological target: mouse precursor form of IL-1β (preIL-1β) (mouse) (UniProt P10749)
[2] = biological target: T1, murine interleukin-1β converting enzyme (ICE) (mouse)
T1 sequence: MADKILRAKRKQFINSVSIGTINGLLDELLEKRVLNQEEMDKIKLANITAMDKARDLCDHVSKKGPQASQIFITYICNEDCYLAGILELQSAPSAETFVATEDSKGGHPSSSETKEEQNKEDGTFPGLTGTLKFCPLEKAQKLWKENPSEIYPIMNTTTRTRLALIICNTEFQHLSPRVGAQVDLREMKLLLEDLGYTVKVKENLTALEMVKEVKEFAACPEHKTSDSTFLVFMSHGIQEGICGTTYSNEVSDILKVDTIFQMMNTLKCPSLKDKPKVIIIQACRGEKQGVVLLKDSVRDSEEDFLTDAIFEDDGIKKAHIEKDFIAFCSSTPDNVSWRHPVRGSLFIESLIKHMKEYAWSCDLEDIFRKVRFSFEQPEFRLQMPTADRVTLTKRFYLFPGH

| Molecule | IL-1β (pg/ml) released into the medium by macrophages stimulated with LPS and ATP, ELISA [1] [pg/mL] | percent inhibition of matIL-1β release from LPS-treated ICE +/+ macrophages [2] [%] |
| --- | --- | --- |
| murine interleukin-1β converting enzyme (ICE) | 4430 |  |
| Ac-YVAD-aldehyde [tetrapeptide aldehyde Ac-YVAD-CHO] |  | 78 |

Reference: patent US6100445
